The values below come from patent US20120178697A9.

In the assay the target is PDZ domain (residues 247 through 341) of mouse Dvl-1 (mouse) (UniProt P51141). Briefly: method not stated; called 'experimental data', at 25° C.

On to Dapper peptide, for which the Kd (as a rule, the concentration at which binding is half-saturated) came to 10 µM.
